In the supplement of paper PMC9112550, “Optimization of the antimicrobial peptide Bac7 by deep mutational scanning” (BMC Biology, 2022):

Tested on: Escherichia coli TOP10
Assay: shrunken log2 fold change of peptide-encoding DNA abundance (4.5 h post-induction vs induction); higher = less antimicrobial activity (less host growth inhibition)
Settings: time post-induction: 4.5 h; library: site-saturation at positions 5, 18, 19, 20
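Further: peptides expressed intracellularly from a pBAD plasmid library in pooled LB shake-flask culture, induced with 0.3% L-arabinose, DNA abundance read by NGS, three biological replicates, DESeq2 with apeglm shrinkage.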

**Q.** RRIRKRPPRLPRPRPRPCDHPRP was tested. Which “shrunken log2 fold change” value did it give?
**A.** 0.0248

**Q.** RRIRNRPPRLPRPRPRPNKNPRP was tested. Which “shrunken log2 fold change” value did it give?
**A.** -0.406

**Q.** With RRIRVRPPRLPRPRPRPNMVPRP as the sequence, how does the “shrunken log2 fold change” value read?
**A.** -0.201

**Q.** Which “shrunken log2 fold change” value does the source give for RRIRHRPPRLPRPRPRPVSHPRP here?
**A.** 0.0628

**Q.** Which “shrunken log2 fold change” value does the source give for RRIRARPPRLPRPRPRPPGPPRP here?
**A.** 0.703

**Q.** Which “shrunken log2 fold change” value does the source give for RRIRFRPPRLPRPRPRPDWLPRP here?
**A.** -0.0152

**Q.** Which “shrunken log2 fold change” value does the source give for RRIRERPPRLPRPRPRPNSWPRP here?
**A.** -0.0404

**Q.** How did the “shrunken log2 fold change” value turn out when RRIRFRPPRLPRPRPRPPCNPRP was run?
**A.** -0.284

**Q.** Which “shrunken log2 fold change” value does the source give for RRIRQRPPRLPRPRPRPPWPPRP here?
**A.** 0.429

**Q.** How did the “shrunken log2 fold change” value turn out when RRIRPRPPRLPRPRPRPKQVPRP was run?
**A.** -0.0541

**Q.** For RRIRTRPPRLPRPRPRPALRPRP, which “shrunken log2 fold change” value is on record?
**A.** 0.398

**Q.** With RRIRRRPPRLPRPRPRPGFHPRP as the sequence, how does the “shrunken log2 fold change” value read?
**A.** 0.0982

**Q.** With RRIRVRPPRLPRPRPRPFPFPRP as the sequence, how does the “shrunken log2 fold change” value read?
**A.** -0.199

**Q.** With RRIRFRPPRLPRPRPRPKPTPRP as the sequence, how does the “shrunken log2 fold change” value read?
**A.** 0.879

**Q.** Which “shrunken log2 fold change” value does the source give for RRIRSRPPRLPRPRPRPDRSPRP here?
**A.** -0.0187

**Q.** How did the “shrunken log2 fold change” value turn out when RRIRFRPPRLPRPRPRPLFLPRP was run?
**A.** -0.478

**Q.** For RRIRLRPPRLPRPRPRPLQVPRP, which “shrunken log2 fold change” value is on record?
**A.** 0.109

**Q.** With RRIRERPPRLPRPRPRPNSTPRP as the sequence, how does the “shrunken log2 fold change” value read?
**A.** -0.495

**Q.** How did the “shrunken log2 fold change” value turn out when RRIRLRPPRLPRPRPRPTTWPRP was run?
**A.** 0.0965

**Q.** With RRIRIRPPRLPRPRPRPLWNPRP as the sequence, how does the “shrunken log2 fold change” value read?
**A.** -0.598

**Q.** For RRIRERPPRLPRPRPRPVYIPRP, which “shrunken log2 fold change” value is on record?
**A.** -0.0234

**Q.** For RRIRCRPPRLPRPRPRPDTQPRP, which “shrunken log2 fold change” value is on record?
**A.** -0.239

**Q.** With RRIRKRPPRLPRPRPRPAWIPRP as the sequence, how does the “shrunken log2 fold change” value read?
**A.** 0.0453

**Q.** How did the “shrunken log2 fold change” value turn out when RRIRKRPPRLPRPRPRPVHGPRP was run?
**A.** 0.0412

**Q.** For RRIRNRPPRLPRPRPRPIRTPRP, which “shrunken log2 fold change” value is on record?
**A.** -0.176

**Q.** For RRIRIRPPRLPRPRPRPKWCPRP, which “shrunken log2 fold change” value is on record?
**A.** -0.317

**Q.** For RRIRCRPPRLPRPRPRPKAGPRP, which “shrunken log2 fold change” value is on record?
**A.** 0.251

**Q.** With RRIRTRPPRLPRPRPRPIWRPRP as the sequence, how does the “shrunken log2 fold change” value read?
**A.** -0.111

**Q.** How did the “shrunken log2 fold change” value turn out when RRIRERPPRLPRPRPRPFKEPRP was run?
**A.** -0.346

**Q.** How did the “shrunken log2 fold change” value turn out when RRIRIRPPRLPRPRPRPECYPRP was run?
**A.** -0.146

**Q.** Which “shrunken log2 fold change” value does the source give for RRIRVRPPRLPRPRPRPQILPRP here?
**A.** -0.451

**Q.** With RRIRDRPPRLPRPRPRPRTVPRP as the sequence, how does the “shrunken log2 fold change” value read?
**A.** -0.142

**Q.** How did the “shrunken log2 fold change” value turn out when RRIRWRPPRLPRPRPRPGPSPRP was run?
**A.** 0.223

**Q.** With RRIRIRPPRLPRPRPRPGLHPRP as the sequence, how does the “shrunken log2 fold change” value read?
**A.** -0.000332

**Q.** With RRIRCRPPRLPRPRPRPPDKPRP as the sequence, how does the “shrunken log2 fold change” value read?
**A.** 0.0264

**Q.** For RRIRVRPPRLPRPRPRPDKWPRP, which “shrunken log2 fold change” value is on record?
**A.** -0.151

**Q.** How did the “shrunken log2 fold change” value turn out when RRIRTRPPRLPRPRPRPLHVPRP was run?
**A.** -0.175

**Q.** Which “shrunken log2 fold change” value does the source give for RRIRHRPPRLPRPRPRPIVAPRP here?
**A.** 0.0238

**Q.** With RRIRLRPPRLPRPRPRPIQFPRP as the sequence, how does the “shrunken log2 fold change” value read?
**A.** -0.0198

**Q.** RRIRSRPPRLPRPRPRPHRQPRP was tested. Which “shrunken log2 fold change” value did it give?
**A.** 0.114

**Q.** RRIRPRPPRLPRPRPRPTLFPRP was tested. Which “shrunken log2 fold change” value did it give?
**A.** 0.2

**Q.** For RRIRCRPPRLPRPRPRPCQMPRP, which “shrunken log2 fold change” value is on record?
**A.** -0.609

**Q.** RRIRYRPPRLPRPRPRPSGTPRP was tested. Which “shrunken log2 fold change” value did it give?
**A.** -0.175

**Q.** RRIRQRPPRLPRPRPRPSWQPRP was tested. Which “shrunken log2 fold change” value did it give?
**A.** -0.0449

**Q.** RRIRKRPPRLPRPRPRPDQTPRP was tested. Which “shrunken log2 fold change” value did it give?
**A.** -0.0185

**Q.** With RRIRPRPPRLPRPRPRPYIKPRP as the sequence, how does the “shrunken log2 fold change” value read?
**A.** -0.939

**Q.** RRIRMRPPRLPRPRPRPSDHPRP was tested. Which “shrunken log2 fold change” value did it give?
**A.** 0.386

**Q.** Which “shrunken log2 fold change” value does the source give for RRIRVRPPRLPRPRPRPFVMPRP here?
**A.** 0.0296

**Q.** With RRIRFRPPRLPRPRPRPNFKPRP as the sequence, how does the “shrunken log2 fold change” value read?
**A.** -0.222

**Q.** Which “shrunken log2 fold change” value does the source give for RRIRFRPPRLPRPRPRPKSVPRP here?
**A.** 0.0124

**Q.** With RRIRERPPRLPRPRPRPSAAPRP as the sequence, how does the “shrunken log2 fold change” value read?
**A.** 0.133

**Q.** How did the “shrunken log2 fold change” value turn out when RRIRTRPPRLPRPRPRPNQGPRP was run?
**A.** -0.493

**Q.** Which “shrunken log2 fold change” value does the source give for RRIRSRPPRLPRPRPRPVSFPRP here?
**A.** 0.118

**Q.** RRIRFRPPRLPRPRPRPKFWPRP was tested. Which “shrunken log2 fold change” value did it give?
**A.** 0.265

**Q.** RRIRRRPPRLPRPRPRPLKMPRP was tested. Which “shrunken log2 fold change” value did it give?
**A.** 0.156

**Q.** Which “shrunken log2 fold change” value does the source give for RRIRLRPPRLPRPRPRPSQVPRP here?
**A.** -0.573

**Q.** For RRIRMRPPRLPRPRPRPACSPRP, which “shrunken log2 fold change” value is on record?
**A.** 0.551

**Q.** With RRIRSRPPRLPRPRPRPNHKPRP as the sequence, how does the “shrunken log2 fold change” value read?
**A.** -0.738

**Q.** Which “shrunken log2 fold change” value does the source give for RRIRLRPPRLPRPRPRPWLNPRP here?
**A.** -0.183

**Q.** For RRIRPRPPRLPRPRPRPRMYPRP, which “shrunken log2 fold change” value is on record?
**A.** -0.128

**Q.** RRIRHRPPRLPRPRPRPHGAPRP was tested. Which “shrunken log2 fold change” value did it give?
**A.** -0.183

**Q.** RRIRWRPPRLPRPRPRPSQKPRP was tested. Which “shrunken log2 fold change” value did it give?
**A.** -0.0621

**Q.** For RRIRQRPPRLPRPRPRPYINPRP, which “shrunken log2 fold change” value is on record?
**A.** -0.299

**Q.** RRIRTRPPRLPRPRPRPIIKPRP was tested. Which “shrunken log2 fold change” value did it give?
**A.** -0.67

**Q.** RRIRGRPPRLPRPRPRPLFHPRP was tested. Which “shrunken log2 fold change” value did it give?
**A.** 0.134

**Q.** RRIRARPPRLPRPRPRPWASPRP was tested. Which “shrunken log2 fold change” value did it give?
**A.** -0.145

**Q.** How did the “shrunken log2 fold change” value turn out when RRIRERPPRLPRPRPRPHINPRP was run?
**A.** -0.713

**Q.** RRIRIRPPRLPRPRPRPQTMPRP was tested. Which “shrunken log2 fold change” value did it give?
**A.** -0.0804

**Q.** How did the “shrunken log2 fold change” value turn out when RRIRNRPPRLPRPRPRPDNNPRP was run?
**A.** -0.187

**Q.** For RRIRGRPPRLPRPRPRPVLSPRP, which “shrunken log2 fold change” value is on record?
**A.** 0.238

**Q.** With RRIRARPPRLPRPRPRPQKSPRP as the sequence, how does the “shrunken log2 fold change” value read?
**A.** 0.0945

**Q.** How did the “shrunken log2 fold change” value turn out when RRIRFRPPRLPRPRPRPCKRPRP was run?
**A.** 0.0187

**Q.** RRIRHRPPRLPRPRPRPMNTPRP was tested. Which “shrunken log2 fold change” value did it give?
**A.** -0.616

**Q.** For RRIRQRPPRLPRPRPRPVMHPRP, which “shrunken log2 fold change” value is on record?
**A.** -0.679

**Q.** Which “shrunken log2 fold change” value does the source give for RRIRDRPPRLPRPRPRPVPDPRP here?
**A.** -0.0933
